Source: US20050036993A1, “Immune activation by double-stranded polynucleotides” (priority 1998, published 2005)

System: Stat 1 (Tyr 701), Stat 3 (Tyr 705)
Assay: Western blot of phosphorylated Stat 1, Stat 3 and total Stat 1 in FRTL-5 cells
Type: cell-based, rat
Protocol: SDS-polyacrylamide gel electrophoresis and Western blotting—Transfected FRTL-5 cells or FRTL-5 cells treated with KIFN (100 U/ml protein) which had been grown in 100 mm dishes (Nalge Nunc International), were placed on ice before harvesting, washed with ice-cold Dulbecco's PBS (DPBS), released by gentle scraping with a rubber policeman, and collected by low-speed centrifugation at 833×g for 10 min in a Sorvall table-top centrifuge (rotor H-1000, Dupont Company, Wilmington Del.). After a second washing in DPBS, cells were resuspended in cold lysis buffer [50 mM HEPES pH 7.0,2 mM MgCl2; 250 mM NaCl; 0.1 mM EDTA; 0.1 mM EGTA; 1 mM DTT; 2 mM Na3VO4; 10 mM Na4P2O7; 10 mM NaF; 0.1% NP-40; 0.5 mM p-amidinophenyl methanesulfonyl fluoride hydrochloride (p-APMSF) plus a protease inhibitor cocktail ([…]; 2.5 mg/ml of antipain; 2.5 mg/ml of chymostatin; 0.25 mg/ml leupeptin; 0.25 mg/ml antipain]. The cells were allowed to lyse on ice for 60 min, after which they were vortexed vigorously and centrifuged at 4° C. and at 12,000 rpm in a microcentrifuge for 10 min. The supernatant was collected and frozen in aliquots at −70° C. […] The membrane was again washed and protein detected by incubation for 1 min with ECL detection reagent (Amersham, Arlington Heights, Ill.) followed by exposure to X-ray film. […]

B1: KIFN: K-interferon (gamma interferon, character lost), rat recombinant, 100 U/ml (protein, UniProt P01581 23-156, looked up)
Interferon gamma: QGTLIESLESLKNYFNSSSMDAMEGKSLLLDIWRNWQKDGNTKILESQIISFYLRLFEVLKDNQAISNNISVIESHLITNFFSNSKAKKDAFMSIAKFEVNNPQIQHKAVNELIRVIHQLSPESSLRKRKRSRC
phosphorylation of STAT 1 and STAT 3 (FRTL-5 cells, dsDNA within 6 hours of transfection): significantly lower and more delayed in time | total STAT 1 protein (readily measurable at 12 hours): greater and more advanced in time
